Biological target: HA-tagged N100A zDHHC17 (mouse) (UniProt Q80TN5)

In the case of “Human ankyrin-B-GFP (220-kDa splice variant of ankyrin-B)”, the protein levels of ankyrin-B-GFP (western blot) co-expressed with N100A zDHHC17 in HEK293T cells, against WT zDHHC17 or zDHHA17 is reported as 3 fold.

Source: publication PMC10098127
